The target of the experiment is HLA-A*02:01 (Homo sapiens, UniProt P04439, D140Y/D185E/D98H/E176V/E277Q/G131W/G231S/I119V/I121R/I166T/I218V/L300P/L318F/N151K/N90K/P208A/P217A/Q86G/Q94H/R138H/R169H/T345S). Put plainly: MHC binding assay: UV-ligand exchange and β2m ELISA (peptide exchange yield, Table 7). As to conditions: binding of HLA-class I restricted peptides to HLA-A*02:01, UV-ligand exchange. An excerpt: Candidate peptides for T cell based therapies according to the present invention were further tested for their MHC binding capacity (affinity). The individual peptide-MHC complexes were produced by UV-ligand exchange, where a UV-sensitive peptide is cleaved upon UV-irradiation, and exchanged with the peptide of interest as analyzed. Only peptide candidates that can effectively bind and stabilize the peptide-receptive MHC molecules prevent dissociation of the MHC complexes. To determine the yield of the exchange reaction, an ELISA was performed based on the detection of the light chain (β2 m) of stabilized MHC complexes. The assay was performed as generally described in Rodenko et al. (Rodenko et al., 2006).
96 well MAXISorp plates (NUNC) were coated over night with 2 ug/ml streptavidin in PBS at room temperature, washed 4× and blocked for 1 h at 37° C. in 2% BSA containing blocking buffer. Refolded HLA-A*02:01/MLA-001 monomers served as standards, covering the range of 15-500 ng/ml. Peptide-MHC monomers of the UV-exchange reaction were diluted 100 fold in blocking buffer. Samples were incubated for 1 h at 37° C., washed four times, incubated with 2 ug/ml HRP conjugated anti-β2 m for 1 h at 37° C., washed again and detected with TMB solution that is stopped with […]. Absorption was measured at 450 nm. Candidate peptides that show a high exchange yield (preferably higher than 50%, most preferred higher than 75%) are generally preferred for a generation and production of antibodies or fragments thereof, and/or T cell receptors or fragments thereof, as they show sufficient avidity to the MHC molecules and prevent dissociation of the MHC complexes.
For “51 (LDSEALLTL; listed as Homo sapiens) [compound 51]”, the “Peptide exchange (MHC class I binding score, peptide exchange yield)” value (shortened to “Peptide exchange”) was “++ (≥20% = ++)”.
To “14 (YTFSGDVQL; listed as Homo sapiens) [compound 14]” belongs “+++ (≥50% = +++)”.
Turning to “67 (FLIENLLAA; listed as Homo sapiens) [compound 67]”, the “Peptide exchange” value is listed as “+++ (≥50% = +++)”.
As to “192 (TLLPSSGLVTL; listed as Homo sapiens) [compound 192]”, the “Peptide exchange” value is reported as “++ (≥20% = ++)”.
To “278 (VLEDKVLSV; listed as Homo sapiens) [compound 278]” belongs “+++ (≥50% = +++)”; to “281 (LLLESDPKVYSL; listed as Homo sapiens) [compound 281]”, “++ (≥20% = ++)”.
To “222 (LLTGVFAQL; listed as Homo sapiens) [compound 222]” belongs “++ (≥20% = ++)”; to “219 (GVVPTIQKV; listed as Homo sapiens) [compound 219]”, “++ (≥20% = ++)”.
On to “229 (YLYELEHAL; listed as Homo sapiens) [compound 229]”, for which the “Peptide exchange” value was “++ (≥20% = ++)”.
To “148 (YLILSSHQL; listed as Homo sapiens) [compound 148]” belongs “+++ (≥50% = +++)”; to “146 (VVAAHLAGA; listed as Homo sapiens) [compound 146]”, “++ (≥20% = ++)”; to “147 (GLLSALENV; listed as Homo sapiens) [compound 147]”, “+++ (≥50% = +++)”.
To “101 (SLLEVNEASSV; listed as Homo sapiens) [compound 101]” belongs “+++ (≥50% = +++)”.
Regarding “102 (GLYPVTLVGV; listed as Homo sapiens) [compound 102]”, the “Peptide exchange” value is given as “+++ (≥50% = +++)”.
In the case of “273 (SLNKQIETV; listed as Homo sapiens) [compound 273]”, the “Peptide exchange” value is on record as “++ (≥20% = ++)”.
To “167 (LVVDEGSLVSV; listed as Homo sapiens) [compound 167]” belongs “+++ (≥50% = +++)”; to “106 (VLLGSVVIFA; listed as Homo sapiens) [compound 106]”, “++ (≥20% = ++)”; to “111 (AQLEGKLVSI; listed as Homo sapiens) [compound 111]”, “+++ (≥50% = +++)”.
To “266 (FLLDKPQDL; listed as Homo sapiens) [compound 266]” belongs “++ (≥20% = ++)”; to “204 (SEWGSPHAAVP; listed as Homo sapiens) [compound 204]”, “+++ (≥50% = +++)”; to “4 (VLFGELPAL; listed as Homo sapiens) [compound 4]”, “+++ (≥50% = +++)”.
To “170 (FIAAVVEKV; listed as Homo sapiens) [compound 170]” belongs “++ (≥20% = ++)”; to “215 (QIADIVTSV; listed as Homo sapiens) [compound 215]”, “++ (≥20% = ++)”.
With “6 (FLNAIETAL; listed as Homo sapiens) [compound 6]”, the “Peptide exchange” value is “++++ (≥75% = ++++)”.
On to “5 (GLVDIMVHL; listed as Homo sapiens) [compound 5]”, for which the “Peptide exchange” value was “+++ (≥50% = +++)”.
Consider “107 (RVLPGQAVTGV; listed as Homo sapiens) [compound 107]”, for which the “Peptide exchange” value is listed as “++ (≥20% = ++)”.
For the substance “91 (LLPSIFLMV; listed as Homo sapiens) [compound 91]”, the “Peptide exchange” value is “++ (≥20% = ++)”.
To “55 (HLFDKIIKI; listed as Homo sapiens) [compound 55]” belongs “+++ (≥50% = +++)”; to “47 (GLNGFNVLL; listed as Homo sapiens) [compound 47]”, “+++ (≥50% = +++)”.
To “275 (AVPPPPSSV; listed as Homo sapiens) [compound 275]” belongs “++ (≥20% = ++)”.
As for “68 (QLMNLIRSV; listed as Homo sapiens) [compound 68]”, the entry is “+++ (≥50% = +++)”; as for “103 (YLADTVQKL; listed as Homo sapiens) [compound 103]”, “++ (≥20% = ++)”.
Take “286 (FLTEMVHFI; listed as Homo sapiens) [compound 286]”: the “Peptide exchange” value is “+++ (≥50% = +++)”.
To “125 (AALEVLAEV; listed as Homo sapiens) [compound 125]” belongs “+++ (≥50% = +++)”; to “19 (KVFELDLVTL; listed as Homo sapiens) [compound 19]”, “++ (≥20% = ++)”; to “23 (ALLSPLSLA; listed as Homo sapiens) [compound 23]”, “+++ (≥50% = +++)”.
Take “221 (IMLNSVEEI; listed as Homo sapiens) [compound 221]”: the “Peptide exchange” value was “++ (≥20% = ++)”.
As for “231 (LLDDIFIRL; listed as Homo sapiens) [compound 231]”, the entry is “+++ (≥50% = +++)”; as for “72 (VLSTRVTNV; listed as Homo sapiens) [compound 72]”, “++ (≥20% = ++)”; as for “25 (LLWGHPRVALA; listed as Homo sapiens) [compound 25]”, “+++ (≥50% = +++)”.
To “36 (TVLQELINV; listed as Homo sapiens) [compound 36]” belongs “+++ (≥50% = +++)”; to “84 (FLLEREQLL; listed as Homo sapiens) [compound 84]”, “++++ (≥75% = ++++)”.
To “28 (IKVTDPQLLEL; listed as Homo sapiens) [compound 28]” belongs “++ (≥20% = ++)”; to “117 (TLLEGISRA; listed as Homo sapiens) [compound 117]”, “++ (≥20% = ++)”; to “13 (RLHDENILL; listed as Homo sapiens) [compound 13]”, “+++ (≥50% = +++)”.
Regarding “283 (ALSELLQQV; listed as Homo sapiens) [compound 283]”, the “Peptide exchange” value is recorded as “+++ (≥50% = +++)”.
As for “285 (MLLDTVQKV; listed as Homo sapiens) [compound 285]”, the entry is “+++ (≥50% = +++)”; as for “145 (ALEEKLENV; listed as Homo sapiens) [compound 145]”, “+++ (≥50% = +++)”.
In the case of “182 (GLQDGFQITV; listed as Homo sapiens) [compound 182]”, the “Peptide exchange” value is “+++ (≥50% = +++)”.
With “243 (GLAEFQENV; listed as Homo sapiens) [compound 243]”, the “Peptide exchange” value is “++ (≥20% = ++)”.
To “160 (TLQEWLTEV; listed as Homo sapiens) [compound 160]” belongs “+++ (≥50% = +++)”; to “17 (GLLPSAESIKL; listed as Homo sapiens) [compound 17]”, “++++ (≥75% = ++++)”.
As for “21 (YLMDDFSSL; listed as Homo sapiens) [compound 21]”, the entry is “+++ (≥50% = +++)”; as for “191 (AAIEIFEKV; listed as Homo sapiens) [compound 191]”, “+++ (≥50% = +++)”; as for “113 (FLFLKEVKV; listed as Homo sapiens) [compound 113]”, “++ (≥20% = ++)”.
As for “48 (KISDFGLATV; listed as Homo sapiens) [compound 48]”, the “Peptide exchange” value is recorded as “+++ (≥50% = +++)”.
To “50 (ILLSVLHQL; listed as Homo sapiens) [compound 50]” belongs “+++ (≥50% = +++)”.
